Data from the nanobody polyreactivity screen of Harvey et al. (2022).

Test: yeast display, Sf9 membrane polyspecificity reagent, FACS + sequencing; frameworks hold sequencing errors
Procedure, shortened: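 Genes from sorted yeast were amplified by colony PCR, read by MiSeq 2 × 250 sequencing and filtered on CDR length. These cells carried a synthetic nanobody library in Saccharomyces cerevisiae BJ5465 and were sorted by FACS into low and high (top ~1%) gates on anti-HA and streptavidin fluorescence. Polyreactivity is labelled according to the gate of origin.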

Row | Sequence | polyreactivity (PSR sort gate)
1 | QVQLVESGGGLVQAGGSLRLSCAASGRIFAKNTMGWYRQAPGKERELVAAISRSGGRTYYADSVKGRFTISRDNAKNTVYLQMNSLKPEDTAVYYCSKDVKGSYAYDSWGQGTQVTVSS | high polyreactivity
2 | QVQLVESGGGLVQAGGSLRLSCAASGRIFALYTMGWYIQAPGKERELVAAITTSGGSTYADSVKGRFTISRDNAKNTVYLQMNSLKPEDTAVYYCNAQGYEGLGEFDYWGQGTQLTVSS | low polyreactivity
3 | QVQLVESGGGLVQAGGSLRLSCAASGRIFANNAMGWYRQAPGKEREFVAAINYSGTSTYYADSVKGRFTISRDNAKNTVYLQMNSLKPEDTAVYYCAADLPYYPYLYDYWGQGTQVTVSS | low polyreactivity
4 | QVQLVESGGGLVQAGGSLRLSCAASGRIFAPYAMGWYRQAPGKERELVAAISWRVGSTYYADSVKVRFTISRDYAKNTVYLQMNSLKPDDTAVYYCAARPSYRYDYLGQGTQVTVSS | high polyreactivity
5 | QVQLVESGGGLVQAGGSLRLSCAASGRIFAQYAMGWYRQAPGKERELVAGIDRRGGSTYYADSVKGRFTISRDNAKNTVYLQMNILKPEDTAVYYCAAYGTTGVYRGPGYDYWGQGTQVTVSS | low polyreactivity
6 | QVQLVESGGGLVQAGGSLRLSCAASGRIFAQYAMGWYRQAPVKERELVAGIDRRGGSTYYADSVKGRFTISRDNAKNTVYLQMNSLKPEDTAVYYCAAYGTTGVYRGPGYDYWGQATQVTVSS | low polyreactivity
7 | QVQLVESGGGLVQAGGSLRLSCAASGRIFARNTMGWYRQAPGKERELVAAISWGGGRTYYADSVKGRFTISRDNAKNTVYLQMNSLKPEDTAVFYCAAETLQIPRGEYWGQGTQVTVSS | low polyreactivity
8 | QVQLVESGGGLVQAGGSLRLSCAASGRIFARYAMGWYRQAPGKERELVAAISRGGSTKYADSVKGRFTISRDNAKNTVYLQMNSLKPEDTAVYYCARQLWGSPYGAYYAGDYWGQGTQVTVSS | low polyreactivity
9 | QVQLVESGGGLVQAGGSLRLSCAASGRIFARYAMGWYRQAPGKERELVAAITKSVGSTYYADSVKGRFTNSRDNAKNTVYLQMNSLKPEDTAVYYCNAVARGYGYDYWGQGTQVTVSS | high polyreactivity
10 | QVQLVESGGGLVQAGGSLRLSCAASGRIFARYAMGWYRQAPWKERELVADITTGGSTDYADSVKGRFTISRDNAKNTVYLQMNSLKPEDTAVYYCAKDHHPPGKGQSVSLGYDYWGQGTQVTVSS | low polyreactivity
11 | QVQLVESGGGLVQAGGSLRLSCAASGRIFARYAMRMYRQAPEKERELVDYINSGDNTYYADSVKWRFTISRDNAKNTVYLQMNSLKPDATAVYYCAAVVGRRQSSSSRFEYDYWGQGTQVTVSS | low polyreactivity
12 | QVQLVESGGGLVQAGGSLRLSCAASGRIFASNAMGWYRQAPGKERELVAAIDQGGGSSYYADSVKGRFTISRDNAKNTVYLLMNSLKPEDTAVYYCAADYITAYPRLYNYWGQGTQVTVSS | low polyreactivity
13 | QVQLVESGGGLVQAGGSLRLSCAASGRIFAVNAMGWYRQAPGKERELVAAISWSGGITRYADSVKGRFTISRDNAKNTVYLQMNSLKPEDTAVYYCNASQWPSRFDYWGQGTQVTVSS | low polyreactivity
14 | QVQLVESGGGLVQAGGSLRLSCAASGRIFAVYAMGWYRQAPGKEREFVAAISYSGGITYYADSVKGRFTISRDNAKNTVYLQMNSLKPEDTAVYYCNAYYYFWGQGTQVTVSS | low polyreactivity
15 | QVQLVESGGGLVQAGGSLRLSCAASGRIFAVYAMGWYRQAPGKERELVAAINNGASTNYADSVKGRFTISRDNAKNTVYLQMNSLKPEDTAVYYCAAYGYWGQGTQVTVSS | high polyreactivity
16 | QVQLVESGGGLVQAGGSLRLSCAASGRIFAVYAMGWYRQAPGKERELVAAIRWSGVRTYYADSVKGRFTISRDNAKNTVYLQMNSLKPEDTAVYYCAAEYSGQYYSPVSFLYDYWGQGTQVTVSS | high polyreactivity
17 | QVQLVESGGGLVQAGGSLRLSCAASGRIFAWNAMGCYRQAPGKERELVAGISGSGGSTYYADSVKGRFTISRDNAKNTVYFQMNSLKPEDTAVYYCAARRRYDGWGGYWGQGTQVTVSS | high polyreactivity
18 | QVQLVESGGGLVQAGGSLRLSCAASGRIFAWNAMGWYRQAPGTERELVARIRVSGGRTYYADSVKGRFTISRDNAKNTVYLQMNSLKPEDTAVDYCNAYLRSGSMDYWGQGTQVTVSS | high polyreactivity
19 | QVQLVESGGGLVQAGGSLRLSCAASGRIFAWYAMGWYRQAPGKERELVAAISDSGRSTYYADSVKGRFTISRDNAKNTVYLQMNSLKPEDNAVYYCAADQVVYSAYWCDHYDYWGQGTQVTVSS | low polyreactivity
20 | QVQLVESGGGLVQAGGSLRLSCAASGRIFAYNAMGWSRQAPGKERELVAAITWSGGTTYYADSVKGRFTISRDNAKNTVYLQMNSLKPEDTAVYYCAASRRYGGYRFDYWGQGTQVTVSS | high polyreactivity
21 | QVQLVESGGGLVQAGGSLRLSCAASGRIFAYNAMGWYRQAPGKERELVAAISSSDDDTYYADSVKGRFTISRDNAKNTVYLQMNSLKPEDTAAYYCAAEWDTDRLWAGPRGSLYDYWGQGTQVTVSS | high polyreactivity
22 | QVQLVESGGGLVQAGGSLRLSCAASGRIFAYNARGWYRQAPGKERELVADISSGGNTYYADSVKGRFTISRDNAKNTVYLQMNSLKPEDTAVYYCAADIAWYTHYHRIFDYWGQGTQVTVSS | low polyreactivity

Row | Sequence | polyreactivity (PSR sort gate)
23 | QVQLVESGGGLVQAGGSLRLSCAASGRIFAYNTMGWYRQAPGKERELVAVITSGGSTNYADSVKGRFTISRDNAKNTVYLQMNSLKPEDTAVYYCNADPRLRQTRDYWGQGTQVTVSS | high polyreactivity
24 | QVQLVESGGGLVQAGGSLRLSCAASGRIFAYYAMGWYRQAPGKERELVAAINWSGDGTIYADSVKWRFTISRDNAKNTVYLQMNSLKPQDTAVYYCNADWTSYGFGTRLDYWGQGNQVTVSS | low polyreactivity
25 | QVQLVESGGGLVQAGGSLRLSCAASGRIFAYYAMGWYRQAPGKERELVAAISGGGGSTYYADSVKGRFTISRDNAKNTVYLQMNSLKPEDTAVYYCAARYTVYSATGRYYYWGQGTQVTVSS | high polyreactivity
26 | QVQLVESGGGLVQAGGSLRLSCAASGRIFAYYAMGWYRQAPGKERELVAAISRSGVSTYYADSVKGRFTISRDNAKNTVYLQMNSLKPEDTAVYYCAASWWYEIFDYWGQGTQVTVSS | low polyreactivity
27 | QVQLVESGGGLVQAGGSLRLSCAASGRIFAYYAMGWYRQAPGKERELVATISVTGGSTYYADSVKGRFTISRDNAKNTVYLQMNSLKPEDTAVYYCNVDPGTYWPYSGEDYWGQGTQVTVSS | low polyreactivity
28 | QVQLVESGGGLVQAGGSLRLSCAASGRIFCDNGMGWYRQAPAKESELVTYADSVKGLFTISRDNAKNTVYLQMNSLKPEDTAVYYCNKDPPRFSGLDENYWGQGTQVTVSS | low polyreactivity
29 | QVQLVESGGGLVQAGGSLRLSCAASGRIFCFNAMGWYRQAPGKERELVAAISGTGGSTYYADSEKGRFTISRDNAKNTVYLQMNSLKPEDTAVYYCAAFYNYYGQRYYYWGQGTQVTVSS | high polyreactivity
30 | QVQLVESGGGLVQAGGSLRLSCAASGRIFCKYAMGWYIQAPGKERELVAAISRSGASTYYADSVKGRFTISRDNAKNTVYLQMNSLKPEDTAVYYCAAVPPYNYRFRVYYWGQGTQVTVSS | high polyreactivity
31 | QVQLVESGGGLVQAGGSLRLSCAASGRIFDCYAMGWYSQAPGKERELVAAITSRGGSTYYADSVKGRFTISRDNAKNTVYLQMNSLKPEDTAVYYCAKRSTSRGYDYWGQGTQVTVSS | high polyreactivity
32 | QVQLVESGGGLVQAGGSLRLSCAASGRIFDDNAMGWYRQAPGKETELVAAISSSGGSTYYADSVKGRFTISRDNAKNSVYLQMNSLKPEDTAVYYCAKAPGQDTPYPYGYWGQGTQVTVSS | high polyreactivity
33 | QVQLVESGGGLVQAGGSLRLSCAASGRIFDDNTMGWYRQAPGKEREVVAAISVSGGRTYYADSVKGRFTISRDNAKNTVYIQMNSLKPEDTAVYYCNARLGPFWDYRLKNGTHDYWGQGTQVTVAS | high polyreactivity
34 | QVQLVESGGGLVQAGGSLRLSCAASGRIFDDYVMGWYRKAPGKERELVARISVRGGSTYYADSVKGRFTISRDNAKNTVYLQMNSLKPEDTAVYYCNAVFGGWLGPFDYWGQGTQVTVSS | low polyreactivity
35 | QVQLVESGGGLVQAGGSLRLSCAASGRIFDFNAMGWYRQAPGKEREFVAAIRTSGGDSTYYADSVKGRFTISRDNAKTTVYLQMNSLTPEDTAVYYCAKTVWWYYRYPFDYWGQGTQVTVSS | low polyreactivity
36 | QVQLVESGGGLVQAGGSLRLSCAASGRIFDGNAMGWYRKAPGKERELVATITRGGRTNYADSVKGRFTISRDNAKNTVYLQMNSLKPEDTAVYYCNAPIYGRYYDLDYWGQGTQVTVSS | low polyreactivity
37 | QVQLVESGGGLVQAGGSLRLSCAASGRIFDGNAMGWYRQAPGKERELVAAISSSGGSTYYADSVKGRFTISRDNAKNTVYLQMNSLKPEDTAVYYCAYPLRRTWGNYRYGYWGQGTQVTVSS | high polyreactivity
38 | QVQLVESGGGLVQAGGSLRLSCAASGRIFDGYAMGWYRQAPGKERELVAAISNGGGSTYYADSVKGRFTISRDNAKNTVYLQMNSLKPEDTAVYYCAARIFSRYTRNYWGQGTQVTVSS | high polyreactivity
39 | QVQLVESGGGLVQAGGSLRLSCAASGRIFDHNAMGWYRQAPGKERELVAAIDSGTSTNYADSVKGRFTISRDNAKNTVYLQMNSLKPEDTAVYYCARLLGPVRDKYDYDYWGQGTQVTVSS | low polyreactivity
40 | QVQLVESGGGLVQAGGSLRLSCAASGRIFDIYAMGWSRQAPGKERELVAAIDESGGSTYYADSVKGRFTISRDNAKNTVYLQMNSLKPEDTAVDYCATDDTWTIAYGWYWFTYEYWGQGTQVTVSS | low polyreactivity
41 | QVQLVESGGGLVQAGGSLRLSCAASGRIFDIYAMGWYRQAPGKEGELVAAIRLSSGTTYYADSLKGRITISRDYAKNNVYLQMSSVKQEDSAVYYCNAIYRRGRPGYYYWGQGTQVNVSS | high polyreactivity
42 | QVQLVESGGGLVQAGGSLRLSCAASGRIFDIYAMGWYRQAPGKERELVAAIDESGGSTYYADSVKGRFTISRDNAKNTVYLQMNSLKPEDTAVYYCATVDTWTISYGWYCFTYEYWGQCTQVTVSS | low polyreactivity
43 | QVQLVESGGGLVQAGGSLRLSCAASGRIFDIYAMGWYRQAPGKERELVAGITWRAGSTYYADSVKGRFTISRDNAKNTVYLQMNSLKPEDTAVYYCAAEVWVTDPYWGDFYYWGHGTQVTVSS | low polyreactivity
